B1: XP_023876189: subfamily 72 UGT, sequence homolog of Qs72S_1 (protein)
chain: MEQKPHIAILPSPGMGHLIPFVEFAKLLLLHHDFHITCIIPTIGSPSKAMREVLQALPTSIDHVFLPPVSLEELGGVKPGIQITLTMIRSLPPLREVLTSLVATTRLVALVVDLFGTDALDVAKELNVSPYIFYPTNAMVVSLVLHLPKLDETVSCEYRDLPEPVKLPGCVPIHGRDLLDPIQDRTTELYKLFLRGAKWLRLVEGIIVNTFMELDGNVIKALEDEEAKSGTIYTIGPIIQSSSTKHVEGSDGLRWLDNQPRGSVLFVCFGSGGTLSYDQMKELALGLELSKQKFLWVVRSPNNELAQAAYFSDQTLDNNPLSFLPVGFIERTKEQGLVVPSWAPQAQVLSHDSTGGFLSHCGWNSTLESIMQGIPLIAWPLFAEQRMNALLLTEDLKVALRPKANEKNLVDREEIAKVIKSLMVGEDGKKIHSRMKDLKIAAEKALSPNGPSTKALADLASHWTNQSNS
modifications: Quercus suber
B2: XP_030967178: subfamily 72 UGT, sequence homolog of Qs72S_1 (protein, listed as Quercus lobata)
chain: MEQKPHIALLPSPGMGHLIPLVELAKLLLLHHDFHITCIIPVLGSPSKAMKAVLQALPTSIDNVFLPPVILEEEEIKGLKLEVQAMLTLTRSLPPLRDVLKSTRFSAFVVDPFGIDALDIAKELNISPYIFFSSNAFALSLVLHLPKLDETVPCEYRDLPEPVKLPGCIPIHGRDLIEPVQDRTSELYKMFLTNAKRYRLAEGIIVNTFMELEGSAIKAMLEEEAKNLPLFPVGPIQSGSSNQVDKLESDCLSWLDNQPHGSVLFVCFGSGGTLSYEQTNELALGLELSGQKFIWVVRTPNNESADATYLSDQNLGDNPLAFLPKGFVERTKGQGLVVPLWAPQAQVLSHGSTGGFLTHCGWNSTLESIMQGIPLIVWPLFAEQKMNAALLAEDLKVALRPKTDKNGLIDREEIAKVVKGLMVGEEGKKVHNRMEDIKIAAEKALSADGSSTKALSKLATQWKNHPDF
B3: Qs72S_1: subfamily 72 UGT (glycosyltransferase) from Quercus suber (protein)
chain: MEQKPHIALLPSPGMGHLIPLVEFAKQFVLHHDFHITCIIPVLGSPSKAMKAVLQALPTTIDHVFLPPVILEEEEIKGLKFEVQTILTLTRSLPPLREVLKTTRFSAFVVDPFGIDALDIAKELNISPYIFFPSNAFALSLIFHLPKLDETVSCEYRDLPEPLKLPGCIPIHGRDLIEPVQDRTSELYKMFLRNAKRFRLAEGIIVNTFMELEGSAIKALLDEEAKNLPLYPIGPIQSGSSNLQVDKSVSDCLRWLDNQPHGSVLFVCFGSGGTLSYDQTNELALGLELSGQKFLWVVRTPNNESADAAYLSDQILDNNPLDFLPKGFVERTEGQGLAVPSWAPQAQVLSHGSTGGFLTHCGWNSTLESIMQGIPLIAWPLYAEQKMNAPLLAEDLKVALRPKTNKSGLIDQEEIAKVVKGLMIGEEGKKVYNRMKDIKMAAEKALSADGSSTKALSELASQWKNHPGF
modifications: Quercus suber
notes: subfamily 72 UGT (glycosyltransferase) from Quercus suber
B4: XP_023875154: subfamily 72 UGT, sequence homolog of Qs72S_1 (protein)
chain: MLSKMEQKPHIALLPSLGMGHLIPLVEFAKQFVLHHDFHITCIIPVLGSPSKAMKAVLQALPTAIDHVFLPPVKLEEEEIKGLKFEVQTILTLTRSLPPLREVLKSTRFSAFVVDPFGIDALDIAKELNISPYIFFPTNAFALSLIFHLPKLDETVSCEYRDLPEPLKLPGCIPIHGRDLLEPVQDRTSELYKMFLRNAKRFRLAEGIIVNTFMELEGSAIKALLDEEAKNLPLYPIGPIQSGSSNQVDKSESDCLRWLDNQPHGSVLFVCFGSGGTLSYDQTNELALGLELSGQKFLWVVRTPNNESADAAYLSDQTLNNNLLAFLPKGFVERTEGQGLAVPSWAPQAQVLSHGSTGGFLTHCGWNSTLESIMQGIPLIAWPLYAEQKMNAPLLAEDLKVALRPKTNKNGLIDREEIAKVVKGLMIGEEGKKVYNRMKDIKMAAEKALSADGSSTKALSELASQWKNHPGF
modifications: Quercus suber
B5: KAF3968553: subfamily 72 UGT, sequence homolog of Qs72S_1 (protein, listed as Castanea mollissima)
chain: MEQKPHIALLPSPGMGHLIPLVEFAKLFVLHHDFRITCIIPVLGSPSKAMKAVLQALPTTIDHVFLPPVILEEEEIKGLKFEVQTILTLTRSLPPLRDVLKSTRFSAFVVDPFGIDALDIAKELKISPYIFFPTNAFVLSLMFHLPKLDETVSCEYRDLPEPLKLPGCIPIHGRDLIEPVQDRTSELYKMFLRNVKRFRLAEGIIVNTFMELEGSAIKALLDEEAKNLPLYPIGPIQSGSSNLQVDKSESDCLRWLDNQPRGSVLFVCFGSGGTLSYDQTNELALGLELSGQKFLWVVRTPDNESADAAYLSDQTLDNNPLAFLPKGFVERTEGQGLAVPSWAPQAQVLSHGSTGGFLTHCGWNSTLESIMQGIPLIAWPLYAEQKMNAPLLAEDLKVALRPKTNKNGLIDREEIAKVVKGLMVGEEGKKVHNRMKDIKIAAEKALSADGSSTKTLSELASQWKNHPGF
B6: XP_023905565: subfamily 72 UGT, sequence homolog of Qs72S_1 (protein)
chain: MEQKPHIALLPSPGMGHLVPLVELAKLLLLHHDFHITCIIPVLGSPSKAMKAVLQALPTSIDHVFLPPVILEEEEIKGLKLEVQAMLTLTRSLPPLRDVLKSTRFSAFVVDPFGIDALDIAKELNISPYIFFPSNAFALSLVLHLPKLDETVSCEYRDLPEPIKLPGCITIHGRDLLEPVQDRTSELYKMFLSNTKRYRLAEGIIVNTFMELEGSAIKALLEEEAKNLPLFPVGPIQSGSSNQVDKSESDCLRWLDNQPHGSVLFVCFGSGGTLSYDQTNELALGLELSGQKFIWVVRTPNNESADATYLSDQTLGNNPLAFLPKGFVERTKGQGLVVPFWAPQAQVLSHGSTGGFLTHCGWNSTLESIMQGIPLIVWPLFAEQKMNAALLAEDLKVALRPKTNKNGRIDREEITKVVKGLMVGEEGKKVRNRMKDIKIAAEKALSADGSSTKALSKLATQWKNHSDF
modifications: Quercus suber
B7: PWA37695: subfamily 73 UGT (protein, listed as Artemisia annua)
chain: MVAPSTELHFVMFPLMAQGHIVPMVDIARILAEKGATVTIFATPLVANRFRPVISRAIEAKLKIQILELELQVAKVGLPEGCQSFEKLPSSDSSAKLFAAMDLLEQPAEDLVRKLSPPPDCIISDFLFPWTTDMARRFNIPRLVFHGPGCFWLVCMHAVFSSDKFKTIKLEEKFMLPGLPDQVEVTKLQITGTKEIKPEQMGFWVRATEAEKAAYGTVVHTFYELEPEYVKEYSKVKDTKVWCIGPVALSNKANLDIAERGNKAAINEHDCLKWLDEKEPGSVFYVCLGSITRLSTEQAIEIALGLESTNQPFLWFLRNKTQELEKWFSEVGFEERVKDRGLIVHGWAPQILILSHCAVGGFLTHCGWNSTLEGVSFGVPMVTWPHFADQFLNETFIVEILKIGVRIGVDIPELYGEEDKLEALVKKEDVKRAVECLMDKEDKEAKQRRKRARKLAEMAKRAMAEGGSSYVNVSSLIQDITEFRNTQRLNRLHV
B8: SrUGT71E1: subfamily 71 UGT from Stevia rebaudiana (protein, listed as Stevia rebaudiana)
chain: MSTSELVFIPSPGAGHLPPTVELAKLLLHRDQRLSVTIIVMNLWLGPKHNTEARPCVPSLRFVDIPCDESTMALISPNTFISAFVEHHKPRVRDIVRGIIESDSVRLAGFVLDMFCMPMSDVANEFGVPSYNYFTSGAATLGLMFHLQWKRDHEGYDATELKNSDTELSVPSYVNPVPAKVLPEVVLDKEGGSKMFLDLAERIRESKGIIVNSCQAIERHALEYLSSNNNGIPPVFPVGPILNLENKKDDAKTDEIMRWLNEQPESSVVFLCFGSMGSFNEKQVKEIAVAIERSGHRFLWSLRRPTPKEKIEFPKEYENLEEVLPEGFLKRTSSIGKVIGWAPQMAVLSHPSVGGFVSHCGWNSTLESMWCGVPMAAWPLYAEQTLNAFLLVVELGLAAEIRMDYRTDTKAGYDGGMEVTVEEIEDGIRKLMSDGEIRNKVKDVKEKSRAAVVEGGSSYASIGKFIEHVSNVTI
B9: KAF3968554: subfamily 72 UGT, sequence homolog of Qs72S_1 (protein, listed as Castanea mollissima)
chain: MEQKPHIGILPSPGMGHLIPLVEFAKLLVHHHDFNITCIIPVLGSPSKAMKAVLHALPTTIDHVFLPPVILEEEEMKGPRFEVQTILTLTRSLPPLRDVLKSTRFSAFVVDPFGIDALDIAKELNISPYIFFPTNAFALSLIFHLPKLDETVSCEYRDLPEPLKLPGCIPIHGRDLAEPFQNRTSESYKMFLRIAKRFRLAEGIIVNTFMGLEGSAIKALLEEEAKNLPLYPVGPIQSGSSNQVEESDCLRWLGNQPHGSVLFVCFGSGGTLSYDQTNELALGLELSGQKFLWVVRTPNNESADAAYLSDQTLYNNPLAFLPKGFVERTEGQGLAVPSWAPQAQVLSHGSTGGFLTHCGWNSSLESIMQGIPLIAWPLYAEQKMNAVLLAEDLKVALRPKTNKNGLIDREEIAKVVKGLMDGEEGKKVRNRMKDIKIAAEKALNVDGSSTKTLSKLASKWKNHSSF

Assay: In vitro glucosylation of oripavine and nororipavine by purified UGTs
Format: biochemical
Conditions: 72UGTs, test setup of example 3, FIG. 8
Procedure: Glucosylation samples of a 20 μL total reaction volume for each UGT to be tested were prepared in 96-well microtiter plates as follows:
The microtiter plate was sealed with an adhesive seal, spun shortly and the glucosylation samples were incubated overnight at 30° C. After incubation, glucosylation reaction was terminated by adding 3 volumes (60 μL) of ice-cold 100% methanol the reaction volume and mixing well, followed by centrifugation of the plate at 3000 rpm for 5 min at 4° C. and analysis by HPLC.
The 72UGTs of Table 5 were tested in vitro to using the test setup of example 3 identify those having having specificity toward nororipavine.

Row | Molecule | specificity for nororipavine compared to oripavine | glucosylation activity
1 | B1 | particularly high specificity | –
2 | B2 | particularly high specificity | –
3 | B3 | particularly high specificity | high activity
4 | B4 | particularly high specificity | –
5 | B5 | particularly high specificity | –

Same assay, conditions: purified UGT, 500 μM substrate, overnight at 30° C., HPLC

Row | Molecule | preference for nororipavine glucosylation compared to oripavine glucosylation
6 | B6 | particularly strong preference for Nororipavine glucosylation
7 | B7 | very strong preference for oripavine glucosylation
8 | B1 | particularly strong preference for Nororipavine glucosylation
9 | B8 | preference for glucosylation of nororipavine
10 | B9 | particularly strong preference for Nororipavine glucosylation
11 | B2 | particularly strong preference for Nororipavine glucosylation
12 | B3 | particularly strong preference for Nororipavine glucosylation
13 | B4 | particularly strong preference for Nororipavine glucosylation
14 | B5 | particularly strong preference for Nororipavine glucosylation
